Biological target: T1, GFP-PAK1^S79A (UniProt Q13153 1-545, S79A)
T1 construct: source: 293T cells, expressed, in cell extract / lysate
Assay: co-IP; GFP-PAK1 (WT or S79A) coexpressed with Myc-Cdc42 in 293T cells; extracts immunoprecipitated with anti-GFP, blotted with anti-Myc; lysis buffer 50 mM HEPES pH 7.4, 150 mM NaCl, 1 mM EDTA, 10% glycerol, 1% Triton X100 with phosphatase inhibitors; antibodies overnight at 4°C
Details: partners not purified

T1 sequence (Q13153 whole entry S79A): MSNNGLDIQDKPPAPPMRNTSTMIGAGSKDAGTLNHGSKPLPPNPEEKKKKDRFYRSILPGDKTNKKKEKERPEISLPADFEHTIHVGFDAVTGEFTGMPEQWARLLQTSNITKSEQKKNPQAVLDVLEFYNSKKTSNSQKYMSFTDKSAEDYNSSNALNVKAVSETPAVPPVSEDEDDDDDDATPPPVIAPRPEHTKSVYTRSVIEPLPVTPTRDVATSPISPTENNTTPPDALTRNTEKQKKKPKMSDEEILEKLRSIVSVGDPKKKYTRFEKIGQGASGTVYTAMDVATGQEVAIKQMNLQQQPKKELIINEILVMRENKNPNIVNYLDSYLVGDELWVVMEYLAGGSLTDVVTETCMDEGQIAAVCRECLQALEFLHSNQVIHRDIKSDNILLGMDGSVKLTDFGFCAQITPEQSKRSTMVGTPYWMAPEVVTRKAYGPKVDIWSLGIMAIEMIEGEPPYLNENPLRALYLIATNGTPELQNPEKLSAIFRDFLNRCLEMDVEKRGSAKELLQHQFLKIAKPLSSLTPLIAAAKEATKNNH

B1: Myc-Cdc42 (natural protein)
chain: not shown
notes: Rho GTPase Cdc42; source: 293T cells, coexpressed, in cell extract
fold reduction of binding against wild type PAK1: ~3 fold
